These results are taken from article PMC10403129.

For one data set, the system named is hnRNP U WT (SP120) (rat). Description: EMSA. The following applies: C50, competitive with equimolar vector, 5 mM Mg2+, 10 mM MgCl2 in gel, EMSA: 35 mM Tris-HCl pH 8.0, 72 mM KCl, 5 mM MgCl2, 5 mM DTT, 5 mM spermidine, 50 ug/ml BSA, 37 C, on-bead: 50 mM Tris-HCl pH 8.0, 120 mM KCl. A general note: A gel shift assay detects complexes by their altered migration in electrophoresis.

Another data set concerns hnRNP U ΔSAP (rat). Description: EMSA. The following applies: C50, competitive with equimolar vector, 5 mM Mg2+, 10 mM MgCl2 in gel, EMSA: 35 mM Tris-HCl pH 8.0, 72 mM KCl, 5 mM MgCl2, 5 mM DTT, 5 mM spermidine, 50 ug/ml BSA, 37 C, on-bead: 50 mM Tris-HCl pH 8.0, 120 mM KCl.
A further data set relates to GST-RG (rat). As to the kind of experiment: on-bead pull-down. The following applies: Hill 1.8, 100 ng pBS/FTZ, 2 ul beads, 10 mM Mg2+, EMSA: 35 mM Tris-HCl pH 8.0, 72 mM KCl, 5 mM MgCl2, 5 mM DTT, 5 mM spermidine, 50 ug/ml BSA, 37 C, on-bead: 50 mM Tris-HCl pH 8.0, 120 mM KCl, 10 mM MgCl2 ….
Another data set has as its system GST-SAP (rat). Description: on-bead pull-down. The following applies: Hill 4.6, 100 ng pBS/FTZ, 2 ul beads, 10 mM Mg2+, EMSA: 35 mM Tris-HCl pH 8.0, 72 mM KCl, 5 mM MgCl2, 5 mM DTT, 5 mM spermidine, 50 ug/ml BSA, 37 C, on-bead: 50 mM Tris-HCl pH 8.0, 120 mM KCl, 10 mM MgCl2 ….
In another data set the test system is GST-SAP-RG (rat). As to the kind of experiment: on-bead pull-down. The following applies: Hill 2.5; 100 ng pBS/FTZ, 10 mM Mg2+; unit implied by comparison; EMSA: 35 mM Tris-HCl pH 8.0, 72 mM KCl, 5 mM MgCl2, 5 mM DTT, 5 mM spermidine, 50 ug/ml BSA, 37 C; on-bead: 50 mM Tris-HCl pH 8.0, 120 mM KCl, 10 mM MgCl2 ….

For FTZ S/MAR insert, the values for the K half with hnRNP U WT (SP120) (rat) and in the data set with hnRNP U ΔSAP (rat) were 14 nM and 32 nM, respectively. The half-saturation protein amount (pmol (on beads)) in the data set on GST-RG (rat) was 13; with GST-SAP (rat) it was 22.5. In the data set on GST-SAP-RG (rat), the Kd (pmol (on beads)) was 6.7.
